The supplement of paper PMC7877785
± gives the uncertainty stated by the source.

Experiment: self-splicing fitness, log relative to wild type (ln ratio); higher = more splicing; Tetrahymena group I intron in knt gene, E. coli kanamycin selection, DiMSum; sequences stand for … in CUCUCU…GGAGGGAAAAGUUAUCAGGCAUGCACCUGGUAGCUAGUCUUUAAACCAAUAGAUUGCAUCGGUUUAAAAGGCAAGACCGUCAAAUUGCGGGAAAGGGGUCAACAGCCGUUCAGUACCAAGUCUCAGGGGAAACUUUGAGAUGGCCUUGCAAAGGGUAUGGUAAUAAGCUGACGGACAUGGUCCUAACCACGCAGCCAAGUCCUAAGUCAACAGAUCUUCUGUUGAUAUGGAUGCAGUUCACAGACUAAAUGUCGGUCGGGGAAGAUGUAUUCUUCUCAUAAGAUAUAGUCGGACCUCUCCUUAAUGGGAGCUAGCGGAUGAAGUGAUGCAACACUGGAGCCGCUGGGAACUAAUUUGUAUGCGAAAGUAUAUUGAUUAGUUUUGGAGUACUCGUGGUCG
Procedure, shortened: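 A randomised library covering all eight P1ex-region intron nucleotides was built with the intron in the knt kanamycin-resistance gene on pET-22b(+) and held in E. coli BL21(DE3). Cells were grown overnight at 37°C or 30°C on LB agar, with or without 25 μg/mL kanamycin, plus 100 μg/mL carbenicillin, 50 μM IPTG and 0.2% rhamnose, and pooled colonies were amplicon-sequenced on an Illumina HiSeq 2500. DiMSum fitness is the error-weighted combination of wild-type-normalised replicate fold changes, kanamycin versus none.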

| Sequence | self-splicing fitness (ln) (30 °C) | self-splicing fitness (ln) (37 °C) |
| --- | --- | --- |
| CCUUAGCAAUAUUACGUAUU | -4.45 ± 0.29 | -2.82 ± 0.22 |
| GGUGAGCAAUAUUACGGCGA | -1.1 ± 0.12 | -1.39 ± 0.14 |
| GCCAAGCAAUAUUACGCUAC | -4.34 ± 0.42 | -2.22 ± 0.16 |
| AAUAAGCAAUAUUACGAGCC | -3.73 ± 0.29 | -1.64 ± 0.22 |
| CUUGAGCAAUAUUACGUGUG | -2.12 ± 0.07 | -0.901 ± 0.073 |
| ACUGAGCAAUAUUACGCAUC | -2.22 ± 0.24 | -2.08 ± 0.24 |
| UUACAGCAAUAUUACGGGCA | -1.01 ± 0.1 | -0.657 ± 0.11 |
| AGUUAGCAAUAUUACGUGCG | -0.586 ± 0.082 | -0.00484 ± 0.093 |
| AUACAGCAAUAUUACGUUAG | -3.13 ± 0.15 | -2.12 ± 0.17 |
| UUGCAGCAAUAUUACGGAGG | -2.94 ± 0.16 | -2.73 ± 0.24 |
| CCGCAGCAAUAUUACGGCUU | -4.44 ± 0.27 | -2.45 ± 0.21 |
| ACAAAGCAAUAUUACGCCUG | -0.933 ± 0.07 | -0.0625 ± 0.085 |
| GGCUAGCAAUAUUACGUUAC | -1.55 ± 0.069 | -0.888 ± 0.093 |
| AGCAAGCAAUAUUACGUUCU | -0.601 ± 0.084 | -0.279 ± 0.087 |
| UUGGAGCAAUAUUACGAGGG | -2.34 ± 0.22 | -2.6 ± 0.49 |
| AAGUAGCAAUAUUACGUCGU | -0.969 ± 0.093 | -0.724 ± 0.11 |
| CGAGAGCAAUAUUACGUAUA | -4.06 ± 0.36 |  |
| UACGAGCAAUAUUACGGAUG | -2.95 ± 0.43 | -1.27 ± 0.34 |
| UCUAAGCAAUAUUACGUGAA | -1.68 ± 0.088 | -0.923 ± 0.099 |

| Sequence | self-splicing fitness (ln) (30 °C) | self-splicing fitness (ln) (37 °C) |
| --- | --- | --- |
| UUUAAGCAAUAUUACGCAGU | -2.7 ± 0.22 | -2.36 ± 0.27 |
| CUAUAGCAAUAUUACGCGCG | -0.981 ± 0.2 | 0.458 ± 0.25 |
| UAGUAGCAAUAUUACGUAGU | -4.39 ± 0.42 | -0.839 ± 0.21 |
| UCGAAGCAAUAUUACGCCUA |  | -1.71 ± 0.42 |
| CAAAAGCAAUAUUACGGCCA | -1.68 ± 0.21 | -0.283 ± 0.16 |
| CGGCAGCAAUAUUACGCAGC | -3.98 ± 0.34 | -1.71 ± 0.2 |
| ACGCAGCAAUAUUACGUGCG | -3.58 ± 0.13 | -2.85 ± 0.15 |
| UAAUAGCAAUAUUACGCAGG | -1.82 ± 0.1 | -1.48 ± 0.14 |
| AUCAAGCAAUAUUACGUAGA | -1.36 ± 0.094 | -1.66 ± 0.17 |
| GCCGAGCAAUAUUACGCAAU | -2.79 ± 0.2 | -1.35 ± 0.15 |
| CAGAAGCAAUAUUACGAUAA | -2.32 ± 0.17 | -2.02 ± 0.26 |
| ACCGAGCAAUAUUACGCUCU | -0.43 ± 0.14 | -1.25 ± 0.16 |
| CACCAGCAAUAUUACGUCUA | -2.84 ± 0.091 | -1.79 ± 0.091 |
| GCCUAGCAAUAUUACGUUUG | -2.89 ± 0.21 | -0.761 ± 0.13 |
| GACCAGCAAUAUUACGGUCU | -3.61 ± 0.17 | -3.16 ± 0.21 |
| GAAUAGCAAUAUUACGUAGU | -2.61 ± 0.12 | -1.99 ± 0.18 |
| UGCCAGCAAUAUUACGUCUA | -0.347 ± 0.081 | -0.671 ± 0.089 |
| CGCUAGCAAUAUUACGCAGU | -3.63 ± 0.2 | -2.35 ± 0.2 |
| UGACAGCAAUAUUACGCAGC | -3.89 ± 0.33 | -2.43 ± 0.27 |
